{"source": "patent US5849897", "key": {"[1]": {"biological_target": "human ciliary neurotrophic factor receptor (CNTFR) (human)", "assay": "indirect binding: CNTF-myc, 9E10, FITC-labelled goat anti-mouse antibody, FACS of transfected COS cells"}, "[2]": {"biological_target": "human ciliary neurotrophic factor receptor (CNTFR) (human)", "assay": "indirect binding on COS cells transfected with clone I1: CNTF-myc, 9E10, 125I goat anti-mouse; hand-held gamma counter"}, "[3]": {"biological_target": "human ciliary neurotrophic factor receptor (CNTFR) (human)", "assay": "indirect binding on COS cells transfected with clone I2: CNTF-myc, 9E10, 125I goat anti-mouse; hand-held gamma counter"}, "[4]": {"biological_target": "human ciliary neurotrophic factor receptor (CNTFR) (human)", "assay": "indirect binding on COS cells transfected with clone I4: CNTF-myc, 9E10, 125I goat anti-mouse; hand-held gamma counter"}, "[5]": {"biological_target": "human ciliary neurotrophic factor receptor (CNTFR) (human)", "assay": "indirect binding on COS cells transfected with clone I5: CNTF-myc, 9E10, 125I goat anti-mouse; hand-held gamma counter"}, "[6]": {"biological_target": "human ciliary neurotrophic factor receptor (CNTFR) (human)", "assay": "indirect binding on COS cells transfected with clone I6: CNTF-myc, 9E10, 125I goat anti-mouse; hand-held gamma counter"}, "[7]": {"biological_target": "human ciliary neurotrophic factor receptor (CNTFR) (human)", "assay": "indirect binding on COS cells transfected with clone I7: CNTF-myc, 9E10, 125I goat anti-mouse; hand-held gamma counter"}, "[8]": {"biological_target": "human ciliary neurotrophic factor receptor (CNTFR) (human)", "assay": "indirect binding on COS cells transfected with clone I8: CNTF-myc, 9E10, 125I goat anti-mouse; hand-held gamma counter"}, "[9]": {"biological_target": "human ciliary neurotrophic factor receptor (CNTFR) (human)", "assay": "indirect binding on COS cells transfected with clone I9: CNTF-myc, 9E10, 125I goat anti-mouse; hand-held gamma counter"}, "[10]": {"biological_target": "human ciliary neurotrophic factor receptor (CNTFR) (human)", "assay": "indirect binding on COS cells transfected with clone I10: CNTF-myc, 9E10, 125I goat anti-mouse; hand-held gamma counter"}, "[11]": {"biological_target": "human ciliary neurotrophic factor receptor (CNTFR) (human)", "assay": "indirect binding on COS cells transfected with clone I11: CNTF-myc, 9E10, 125I goat anti-mouse; hand-held gamma counter"}, "[12]": {"biological_target": "human ciliary neurotrophic factor receptor (CNTFR) (human)", "assay": "indirect binding on COS cells transfected with clone I12: CNTF-myc, 9E10, 125I goat anti-mouse; hand-held gamma counter"}, "[13]": {"biological_target": "human ciliary neurotrophic factor receptor (CNTFR) (human)", "assay": "indirect binding on COS cells transfected with clone I13: CNTF-myc, 9E10, 125I goat anti-mouse; hand-held gamma counter"}, "[14]": {"biological_target": "human ciliary neurotrophic factor receptor (CNTFR) (human)", "assay": "indirect binding on COS cells transfected with clone I14: CNTF-myc, 9E10, 125I goat anti-mouse; hand-held gamma counter"}, "[15]": {"biological_target": "human ciliary neurotrophic factor receptor (CNTFR) (human)", "assay": "indirect binding on COS cells transfected with clone I15: CNTF-myc, 9E10, 125I goat anti-mouse; hand-held gamma counter"}}, "data": [{"substance": "CNTF/myc (ligand)", "values": [{"measurement": "fold increase (FACS, positive against negative clones)", "setting": "[1]", "result": 100, "unit": "fold"}, {"measurement": "CPM bound", "setting": "[2]", "result": 2000, "unit": "CPM"}, {"measurement": "CPM bound", "setting": "[3]", "result": 8500, "unit": "CPM"}, {"measurement": "CPM bound", "setting": "[4]", "result": 9000, "unit": "CPM"}, {"measurement": "CPM bound", "setting": "[5]", "result": 2000, "unit": "CPM"}, {"measurement": "CPM bound", "setting": "[6]", "result": 1600, "unit": "CPM"}, {"measurement": "CPM bound", "setting": "[7]", "result": 6000, "unit": "CPM"}, {"measurement": "CPM bound", "setting": "[8]", "result": 7500, "unit": "CPM"}, {"measurement": "CPM bound", "setting": "[9]", "result": 7000, "unit": "CPM"}, {"measurement": "CPM bound", "setting": "[10]", "result": 4500, "unit": "CPM"}, {"measurement": "CPM bound", "setting": "[11]", "result": 7000, "unit": "CPM"}, {"measurement": "CPM bound", "setting": "[12]", "result": 5000, "unit": "CPM"}, {"measurement": "CPM bound", "setting": "[13]", "result": 8000, "unit": "CPM"}, {"measurement": "CPM bound", "setting": "[14]", "result": 10000, "unit": "CPM"}, {"measurement": "CPM bound", "setting": "[15]", "result": 8000, "unit": "CPM"}]}]}
